Test results: paper doi:10.1101/2023.07.24.550339 (bioRxiv, 2023)

Assays:
[1] = molecular target: Rab35BD (MiniBAR225-553), recombinant (human, UniProt O15063 225-553); experiment: ITC
SEC-MALS = molecular target: the molecule itself; experiment: SEC-MALS
SAXS = molecular target: the molecule itself; experiment: SAXS
Rac1Q61L, recombinant = Rac1Q61L, recombinant (human, UniProt P63000 1-192, Q61L); experiment: ITC

B1: Rab35-GPPNHP, recombinant (natural protein)
chain: not shown
Kd [1]: ~2000 nM

B2: Rac1BD (MiniBAR70-208), recombinant (domain or fragment)
chain: not shown
stoichiometry N (SEC-MALS): 2

B3: Rac1BD-Rab35BD (MiniBAR70-553), recombinant (domain or fragment)
chain: not shown
stoichiometry N (SAXS): 2
Kd (Rac1Q61L, recombinant): ~200 nM
